Paper PMC4072508, “Genome-Wide Prediction and Validation of Peptides That Bind Human Prosurvival Bcl-2 Proteins” (PLoS Computational Biology, 2014)

T1: Mcl-1, Q07820
T1 chain: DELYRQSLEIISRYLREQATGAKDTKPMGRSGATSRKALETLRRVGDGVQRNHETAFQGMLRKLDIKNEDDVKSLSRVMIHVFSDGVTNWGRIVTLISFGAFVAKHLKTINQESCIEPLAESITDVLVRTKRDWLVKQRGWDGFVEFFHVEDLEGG


Target: T1, Mcl-1, Q07820
Experiment: peptide SPOT array, c-Myc-tagged receptor at 1 uM or 100 nM, anti-c-Myc-Cy3

Binder | SPOT signal as a fraction of Bim BH3's signal on the same receptor and array
IPGSAVCAFDLTQVAAVFEGRFREQK [SEMA6B] | 0.02
NATHEEVVHLDRNAGDEVTITVEYLR [SNTG2] | 0.01
SGEFARICRDLSHILDAVVISCAKDG [PCNA] | 0.01
KTVVDLVSADLEEVAQKCGLSYKAEA [RAD51L3] | 0.01
DISALTASNLLKRYAEKYSGVLDSPY [FIGNL2] | 0.03
LLLPKGVVLKLKPVATRFPRKAWRQK [GON4L] | 0.32
DPLNDNIATLLHQSSDKFVSELWKDV [MYH9] | 0.02
FEVDDGTSVLLKKNSQHFLPRWKCEQ [GINS1] | 0.05
EVQDRLAHKGISQAARYVYQRLINDG [DAGLB] | 0.16
EITQHNVTELLRDVAAWGRARATGGD [C19orf51] | 0.02
AAVVLSVATFLYQVAERVRYYREFHH [ACCN3] | 0.03
RFNLMQVGRLLQQLAMTGSEEGDPRT [GAPVD1] | 0.04
DLVVSELATVIKKCAEKLSSYPRLRE [DNM2] | 0.06
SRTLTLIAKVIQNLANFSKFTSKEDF [SYNGAP1] | 0.08
SKVRERYVQMLDQIARQMIDFYKDLV [C1orf125] | 0.03
ITMVPQASEILAKMSELVHRRLRHGS [ZFPM2] | 0.1
EEITSDAAYVIQDLATLFEELQREKK [XXXX] | 0.02
EELLRSSADFLQRLSAILRTSLRFRL [NOTCH3] | 0.11
FVQVASAASALKDVSYKIYDDENQKI [NXF5] | 0.02
LEGFRKNEEVLKRCAQEYLSRVKKEE [TACC2] | 0.04
PSIQLHGAKLLEELGTGLIQQYKPDS [HEATR6] | 0.01
CKDPKACTILLRGASKEILSEVERNL [CCT3] | 0.02
QDKILVAVKTLKDASDNARKDFHREA [NTRK2] | 0.02
EQAARVAIEHLDKISDSVLVDIKDTE [CCT5] | 0.01
HNATLILSEGLKRAGHQLQHDLFFDT [GLDC] | 0.02
EGEEFTVTCTIKDVSSSVYSTWKREN [KIT] | 0.02
KKDKARVSELLQGLSFSGDSDVEKDN [PGBD1] | 0.01

Binder | SPOT signal as a fraction of Bim BH3's signal on the same receptor and array
RNIASQTVARLKDVARRISSCLDFEQ [HERC2] | 0.06
KEYRNQFPEILRRAAAHLECIFRFEL [MAGEE1] | 0.02
AYKTVEVVESIEKISTESIQTYEETA [BFSP1] | 0.01
FVQDASAASALKDVSYKIYDDENQKI [NXF2] | 0.01
AIVADRMVEILFHYADRALKKCPDQG [VPS8] | 0.02
TGVNGEISYSLFQASEEIGKTFKINP [PCDHB13] | 0.01
EQWAREIGAQLRRMADDLNAQYERRR [BBC3] | 0.76
LLPRETVAGALRRLGARGGGKGRKGP [CD2BP2] | 0.13
SRTLTLIAKVIQNLANFAKFGNKEEY [RASAL2] | 0.08
ERFEGFCVDMLRELAELLRFRYRLRL [GRIK5] | 0.11
PLSNDTIARRIQELANDMEDQLIEQI [SCAND3] | 0.02
VPAGVSLARNLKRVAEVWMDEYAEYI [GALNT10] | 0.02
QDKMLVAVKALKEASESARQDFQREA [NTRK1] | 0.02
IIKDQLNVSNIDQVARHLRGLLEEEC [CCDC24] | 0.02
GETDANVAKFLNRLSDYLFTLARYAA [MMAB] | 0.02
VPSGTSLARNLKRVAETWMDEFAEYI [GALNTL6] | 0.02
KVRAHHYSVALRRLGQLLGSRPRPPP [FASTK] | 0.14
GKRMKQFPEVIKYLSRNVVHSVRREH [BAZ2A] | 0.29
PKPDSDVTQTINTVAYHARPDSDQRF [BARD1] | 0.01
PQRQRLLADLLHNVSQNIAAETRAED [DFFB] | 0.02
YKSLLLLAYLIRNGSERVVTSAREHI [CLINT1] | 0.05
MAADTQVSETLKRFAGKVTTASVKER [GCN1L1] | 0.11
CVQSTKPSLMIQKAAIQALRKMEPKD [APOB] | 0.09
VKGAEITGKAIQKGASKLRERIQPEE [SPG20] | 0.02
SNKIRNLSTTLQTIATKLCRELYSKE [CLEC12A] | 0.17
LFIPLNISCLLKEGSEHLFDSFEPET [DEPDC5] | 0.02
TRELQELARKDQELADASENLLTENT [TXNDC11] | 0.01
